Laboratory results reported in patent US20190135932A1 (Pfizer, published 2019).
Where “and” joins values, the source holds several entries; their conditions need not be identical. Identical values can stand only once.

T1: commercially available fusion protein containing the extracellular domain of the murine OX40R (mouse, UniProt P47741 20-211)
T1 construct: extracellular domain; Bought; also called mouse OX40R fusion protein
T1 sequence (looked up): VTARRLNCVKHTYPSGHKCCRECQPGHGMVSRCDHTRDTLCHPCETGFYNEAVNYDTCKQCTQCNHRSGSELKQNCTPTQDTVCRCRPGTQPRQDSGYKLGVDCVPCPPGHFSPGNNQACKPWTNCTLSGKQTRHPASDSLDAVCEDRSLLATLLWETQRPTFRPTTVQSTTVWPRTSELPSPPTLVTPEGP

T2: OX40R extracellular and transmembrane domain fused to the intracellular domain of CD40, in 293 cells with an … (UniProt P43489 29-235; P25942 216-277, limits assumed)
T2 sequence (looked up): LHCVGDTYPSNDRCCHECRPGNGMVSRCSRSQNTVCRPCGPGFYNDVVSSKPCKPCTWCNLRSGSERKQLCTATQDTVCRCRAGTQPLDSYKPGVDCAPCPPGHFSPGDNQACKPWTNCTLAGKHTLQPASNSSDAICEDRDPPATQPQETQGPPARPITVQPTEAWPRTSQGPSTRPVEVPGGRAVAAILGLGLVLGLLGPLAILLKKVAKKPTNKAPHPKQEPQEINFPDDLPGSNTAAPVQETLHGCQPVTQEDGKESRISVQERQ

T3: human OX40R on activated primary human T cells (human, UniProt P43489 29-277)
T3 sequence (looked up): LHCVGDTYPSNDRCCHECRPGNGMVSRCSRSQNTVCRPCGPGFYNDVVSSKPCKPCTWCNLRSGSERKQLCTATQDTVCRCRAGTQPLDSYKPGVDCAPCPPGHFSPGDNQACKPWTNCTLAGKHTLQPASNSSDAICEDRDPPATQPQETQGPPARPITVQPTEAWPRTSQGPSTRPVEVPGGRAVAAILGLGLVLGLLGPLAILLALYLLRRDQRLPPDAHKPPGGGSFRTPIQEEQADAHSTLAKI

T4: human OX40R-Ig fusion protein (extracellular domain, amino acids 1-220, of human OX40R fused to the constant … (human, UniProt P43489 29-220))
T4 construct: range 1-220; Range 1-220 as printed; also called OX40-Ig; OX40-human IgG1 fusion protein; not shown: constant region of human IgG1
T4 sequence (looked up): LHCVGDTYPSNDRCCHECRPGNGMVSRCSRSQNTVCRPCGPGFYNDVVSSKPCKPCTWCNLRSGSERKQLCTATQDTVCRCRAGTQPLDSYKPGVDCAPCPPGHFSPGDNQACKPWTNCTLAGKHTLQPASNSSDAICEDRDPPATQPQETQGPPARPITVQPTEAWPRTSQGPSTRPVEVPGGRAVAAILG

T5: Biotinylated CD134-muIg (Ancell 513-030) (UniProt P43489 29-214, biotinylated)
T5 construct: extracellular domain; Captured on streptavidin on a CM5 chip; also called OX40R extracellular domain fusion protein (Biacore ligand); not shown: murine Ig part (muIg) of the bought fusion
T5 sequence (looked up): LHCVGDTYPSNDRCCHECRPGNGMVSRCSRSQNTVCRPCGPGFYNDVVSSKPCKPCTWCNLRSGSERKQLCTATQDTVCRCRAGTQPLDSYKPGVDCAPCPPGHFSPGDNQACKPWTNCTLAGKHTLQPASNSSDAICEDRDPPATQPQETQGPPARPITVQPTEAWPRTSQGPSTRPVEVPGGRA


How the values were obtained:
[1] = target: cynomolgus OX40R on activated cynomolgus monkey T cells / PBMCs (cynomolgus monkey); assay: cell-based or functional assay
[2] = target: T1, commercially available fusion protein …; assay: ELISA
[3] = target: T2, OX40R extracellular and transmembrane …; assay: cell-based or functional assay
[4] = target: T6, CD271-Ig (Alexis Biochemicals) (human, UniProt P08138 29-250); assay: ELISA on coated receptor-Ig fusion proteins, against the EC50 on the OX40R fusion protein
T6 construct: extracellular domain; Bought; also called nerve growth factor receptor (CD271)
T6 sequence (P08138 29-250): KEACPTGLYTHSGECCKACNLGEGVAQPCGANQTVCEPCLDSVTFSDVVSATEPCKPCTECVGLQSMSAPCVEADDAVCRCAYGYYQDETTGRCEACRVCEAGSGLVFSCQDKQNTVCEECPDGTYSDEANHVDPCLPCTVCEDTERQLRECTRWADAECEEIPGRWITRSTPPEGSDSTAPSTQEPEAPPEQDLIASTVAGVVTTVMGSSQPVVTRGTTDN
Experimental: (§1) Maxisorb 96-well plates (Nunc, Roskilde, Denmark) were coated with 100 μl of human TNFα receptor family member fusion proteins at 0.25 μg/ml diluted in BupH™ Carbonate buffer, pH 9.4 (Pierce, Rockford, Ill.) and incubated overnight at 4° C. The selectivity receptor fusion proteins tested included CD40-Ig (Alexis Biochemicals, San Diego, Calif.), CD137-Ig (R&D Systems, Minneapolis, Minn.) and CD271-Ig (Alexis Biochemicals, San Diego, Calif.). Also included as the positive control with each assay was the OX40-Ig fusion protein (in-house construct, Bioexpress, 97/2117). Plates were then washed three times with wash buffer containing 0.05% Tween 20 (Sigma, St Louis, Mo.) diluted in PBS and blocked with 300 μl of 0.5% BSA (Sigma, St Louis, Mo.) in PBS (Sigma, St Louis, Mo.) for 1 hour at RT°. Next, the plates were washed and 100 μl/well of anti-human OX40 reactive antibodies were added to the plates at various concentrations and incubated for 1 hour at RT°. Plates were thoroughly washed three times and OX40R antibody binding was detected with a horse radish peroxidase labeled anti-human kappa chain antibody (Bethyl Laboratories, Montgomery, Tex.) at 25 ng/ml for 1 hour at RD°. Plates were then washed three times which was followed by the addition of 100 μl/well of 1-Step Turbo-TMB substrate (Pierce, Rockford, Ill.) for 30 minutes at RT. The reaction was stopped by adding an equal volume of 2M H₂ SO₄. Absorbance was read at 450 nm on a Molecular Devices Spectra Max 340 (Molecular Devices, Sunnyvale, Calif.).

[5] = target: T7, CD40-Ig (Alexis Biochemicals) (human, UniProt P25942 21-193); assay: as above
T7 construct: extracellular domain; Bought; also called CD40 receptor
T7 sequence (P25942 21-193): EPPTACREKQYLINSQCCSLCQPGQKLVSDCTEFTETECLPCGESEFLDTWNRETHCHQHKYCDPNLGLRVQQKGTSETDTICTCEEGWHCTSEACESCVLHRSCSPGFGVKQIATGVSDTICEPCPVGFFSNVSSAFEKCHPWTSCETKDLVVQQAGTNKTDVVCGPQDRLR
Experimental: as §1

CD137-Ig (R&D Systems) = target: T8, CD137-Ig (R&D Systems) (human, UniProt Q07011 24-186); assay: as above
T8 construct: extracellular domain; Bought; also called 4-1BB receptor (CD137)
T8 sequence (Q07011 whole entry, the tested form may be a part): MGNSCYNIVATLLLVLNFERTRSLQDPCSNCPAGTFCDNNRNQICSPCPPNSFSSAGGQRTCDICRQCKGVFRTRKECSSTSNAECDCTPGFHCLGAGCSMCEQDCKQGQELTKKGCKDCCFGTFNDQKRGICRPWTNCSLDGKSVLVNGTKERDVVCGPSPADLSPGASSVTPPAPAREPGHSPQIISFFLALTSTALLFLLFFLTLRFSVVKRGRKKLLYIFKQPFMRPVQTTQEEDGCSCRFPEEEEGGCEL
Experimental: as §1

[6] = target: T3, human OX40R on activated primary human …; assay: cell-based or functional assay
[7] = target: T4, human OX40R-Ig fusion protein …; assay: ELISA on coated OX40-Ig fusion protein
[8] = target: T5, Biotinylated CD134-muIg (Ancell 513-030); assay: Biacore (SPR), biotinylated CD134-muIg captured on streptavidin, antibody in solution
Experimental: Biotinylated CD134-muIg (Ancell 513-030), at a concentration of 10 μg/ml at a flow rate of 5 μl/min was manually injected over Flow cells-2, 3 and 4 to achieve 3 surface densities: Fc-2=150RU, Fc-3=375RU and Fc-4=580RU. The different density surfaces were prepared to monitor the possibility of mass transport limited binding during association phase and rebinding during dissociation, both artifacts that are influenced by surface density that must be avoided.

| EC50 of anti-CD3 induced IL-2 production by monkey cells (mean of 1:3 dilution curves, N=3) [1] [µg/mL] | binding result [2] | In vitro stimulation of OX40R+ transfected cells (luciferase) (EC50; N = 4) [3] | fold selectivity for the OX40R over this receptor [4] [fold] | fold selectivity for the OX40R over this receptor [5] [fold] | fold selectivity for the OX40R over this receptor (CD137-Ig (R&D Systems)) [fold] | Augmentation of T Cell Activity (EC50): CD3 induced IL-2 production (N = 4) [6] | Augmentation of T Cell Activity (EC50): Stimulation of IL-2 production by antigen-primed cells (N = 1) [6] | EC50 [7] | Kd [8] | koff [8] [s⁻¹] | Binder |
| --- | --- | --- | --- | --- | --- | --- | --- | --- | --- | --- | --- |
| 0.022 | no binding | 0.33 µg/ml and 2.2 nM | > 100 | > 100 | > 100 |  |  |  |  |  | human monoclonal antibody 11D4 (antibody, V domains shown, IgG2 heavy chain, kappa light chain; allotypes G2(n-) and Km3; Alexa Fluor 647 conjugate was used in the species cross-reactivity FACS) VH: EVQLVESGGGLVQPGGSLRLSCAASGFTFSSYSMNWVRQAPGKGLEWVSYISSSSSTIDYADSVKGRFTISRDNAKNSLYLQMNSLRDEDTAVYYCARESGWYLFDYWGQGTLVTVSS VL: DIQMTQSPSSLSASVGDRVTITCRASQGISSWLAWYQQKPEKAPKSLIYAASSLQSGVPSRFSGSGSGTDFTLTISSLQPEDFATYYCQQYNSYPPTFGGGTKVEIKR |
|  |  |  |  |  |  | 0.049 µg/ml and 0.33 nM | 0.014 µg/ml and 0.1 nM | 0.034 µg/mL and 0.23 nM | 0.49 µg/mL and 3.38 nM | 0.00029 | human monoclonal antibody 18D8 (antibody, human IgG2, kappa, V domains shown) VH: EVQLVESGGGLVQPGRSLRLSCAASGFTFDDYAMHWVRQAPGKGLEWVSGISWNSGSIGYADSVKGRFTISRDNAKNSLYLQMNSLRAEDTALYYCAKDQSTADYYFYYGMDVWGQGTTVTVSS VL: EIVVTQSPATLSLSPGERATLSCRASQSVSSYLAWYQQKPGQAPRLLIYDASNRATGIPARFSGSGSGTDFTLTISSLEPEDFAVYYCQQRSNWPTFGQGTKVEIKR |
